Assay [1] addresses RBD derived from the Omicron strain (BA.4 and BA.5 strains) (SARS-CoV-2).
The target in assay [2] is RBD derived from the Omicron strain (BA.1 strain; B.1.1.529) (SARS-CoV-2).
Assay [3] addresses spike protein (RBD region) derived from the South African mutant strain (BA.4 strain) (SARS-CoV-2).

B1: natural human IgG antibody (HIG001697) (antibody, V domains shown)
VH: EVQLVESGGGLVQPGGSLRLSCTASEIIVTRNYMTWVRQAPGKGLEWVAQIYPGGTTYYADSVKGRFTISRHNSMNTMYLQMNSLRTEDTAVYYCARSRGGVDDFWGQGTLVTVSS
VL: DIQMTQSPSSLSASVGDRVTITCQASQDINKFLNWYQQKPGHAPKLLIYDALNLEAGVPSRFSGSASGTYFTFTITSLQPEDIATYYCQQYDNIPPTYGGGTKVDIKR
For the molecule B1, the Kd worked out at 9.96 nM in assay [1], 1.33 nM in assay [2] and 0.282 nM in assay [3].

Values taken from WO2023190852A1 (dated 2023).
